The record followed here is publication PMC11381654 (2020).

In this test the target is human IL‐4Rα (human, UniProt P24394 26-232, N‐glycosylation sites (modelled in the crystal structure; positions not given)). As to the kind of experiment: ITC. A general note: Isothermal titration calorimetry measures the heat released or taken up as one component is titrated into another.

B1: dAb1 (VHH)
VHH: QVQLVESGGGLVQPGGSLRLSCAASGDFYCMAWFRQAPGKEREAVAAIRSGGRSTYYADSVKGRFTISRDNSKNTLYLQMNSLKAEDTAVYYCAVGVDGNCRNYWGQGTLVTVSS
Broadly, the Kd is the free concentration of one partner at which half of the binding sites on the other are occupied at equilibrium, for simple one-to-one binding. A high value points to a looser complex. Molecule B1 had a dissociation constant (Kd) of 2.55 nM.
